Reference: US20060024314A1, “Antibodies and cyclic peptides which bind CEA (carcinoembryonic antigens) and their use as cancer therapeutics” (priority 1998, published 2006)
Bridge positions count the residues as written; N and C are the ends.

Legend:
[1] = target: CEA double mutant Q44R+I46V (human) (UniProt P06731); test: cell-based or functional assay
[2] = tested on: CEA-mediated intercellular adhesion; details: from references (29) and (16); cited from earlier work
CEA mutant D82N (human) = CEA mutant D82N (human) (UniProt P06731); test: cell-based or functional assay
CEA mutant Q80R (human) = CEA mutant Q80R (human) (UniProt P06731); test: cell-based or functional assay
[3] = target: T1, human carcinoembryonic antigen (CEA), wild type (human, UniProt P06731 35-685, GPI membrane anchor); test: cell-based or functional assay
T1 sequence (looked up): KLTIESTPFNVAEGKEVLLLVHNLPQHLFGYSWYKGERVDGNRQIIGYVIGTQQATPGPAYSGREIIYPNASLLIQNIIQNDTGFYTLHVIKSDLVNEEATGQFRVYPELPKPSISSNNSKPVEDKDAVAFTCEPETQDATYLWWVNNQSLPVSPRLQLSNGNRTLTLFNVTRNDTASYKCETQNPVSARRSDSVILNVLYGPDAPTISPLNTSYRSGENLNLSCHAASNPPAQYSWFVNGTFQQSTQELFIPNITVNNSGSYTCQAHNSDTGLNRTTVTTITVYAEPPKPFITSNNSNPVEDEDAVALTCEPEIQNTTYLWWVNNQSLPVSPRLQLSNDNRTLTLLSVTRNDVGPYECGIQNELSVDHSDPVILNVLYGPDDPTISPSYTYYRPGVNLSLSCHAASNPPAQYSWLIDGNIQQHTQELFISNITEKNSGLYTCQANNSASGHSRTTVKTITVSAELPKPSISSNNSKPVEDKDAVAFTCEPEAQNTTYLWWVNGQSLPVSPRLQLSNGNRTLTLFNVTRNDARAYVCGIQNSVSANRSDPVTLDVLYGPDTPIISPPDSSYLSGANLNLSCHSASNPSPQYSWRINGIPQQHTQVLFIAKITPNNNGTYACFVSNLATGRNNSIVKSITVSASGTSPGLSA

## CEA double mutant Q44R+I46V (from UniProt P06731 35-702)
[1]
  degree of differentiation of L6 transfectants: 100%

## H-CQNDTGC-OH (disulfide 1-7; SMILES C[C@@H](O)[C@@H]1NC(=O)[C@H](CC(=O)O)NC(=O)[C@H](CC(N)=O)NC(=O)[C@H](CCC(N)=O)NC(=O)[C@@H](N)CSSC[C@@H](C(=O)O)NC(=O)CNC1=O) [cyclized peptide QNDTG, cyclized peptide representing subdomain 3 of the CEA N domain]
[2]
  inhibition of CEA-mediated intercellular adhesion: effective in inhibiting CEA-mediated intercellular adhesion

## CEA mutant D82N (from UniProt P06731 35-702)
CEA mutant D82N (human)
  degree of differentiation of L6 transfectants: 100%

## CEA mutant Q80R (from UniProt P06731 35-702)
CEA mutant Q80R (human)
  degree of differentiation of L6 transfectants: 81%

B1: cyclized peptide H-CGNRQIIC-OH (subdomain 2) (peptide)
peptide: H-CGNRQIIC-OH
modifications: disulfide 1-8
SMILES: CC[C@H](C)[C@@H]1NC(=O)[C@H](CCC(N)=O)NC(=O)[C@H](CCCNC(=N)N)NC(=O)[C@H](CC(N)=O)NC(=O)CNC(=O)[C@@H](N)CSSC[C@@H](C(=O)O)NC(=O)[C@H]([C@@H](C)CC)NC1=O
[3]
  % fusion of L6(CEA) cells (release of the myogenic differentiation block), peptide at 100 µM: 28%

B2: cyclized peptide H-CGYSWYKC-OH (subdomain 1) (peptide)
peptide: H-CGYSWYKC-OH
modifications: disulfide 1-8
SMILES: NCCCC[C@@H]1NC(=O)[C@H](Cc2ccc(O)cc2)NC(=O)[C@H](Cc2c[nH]c3ccccc23)NC(=O)[C@H](CO)NC(=O)[C@H](Cc2ccc(O)cc2)NC(=O)CNC(=O)[C@@H](N)CSSC[C@@H](C(=O)O)NC1=O
[3]
  % fusion of L6(CEA) cells (release of the myogenic differentiation block), peptide at 100 µM: 18%

B3: cyclized peptide H-CQNDTGC-OH (subdomain 3) (peptide)
peptide: H-CQNDTGC-OH
modifications: disulfide 1-7
SMILES: C[C@@H](O)[C@@H]1NC(=O)[C@H](CC(=O)O)NC(=O)[C@H](CC(N)=O)NC(=O)[C@H](CCC(N)=O)NC(=O)[C@@H](N)CSSC[C@@H](C(=O)O)NC(=O)CNC1=O
[3]
  % fusion of L6(CEA) cells (release of the myogenic differentiation block), peptide at 100 µM: 36%
